# Results: patent publication US20130109581A1, “POSITIVELY CHARGED SPECIES AS BINDING REAGENTS IN THE SEPARATION OF PROTEIN AGGREGATES FROM MONOMERS” (priority 2009, published 2013)
# Like-named read-outs stand apart in the source and are kept apart here. Where no end group is shown, it is not given here. [ ]: non-standard residue; d: D form. Ahx = NCCCCCC(=O)O
# Key:
# Format in all cases: binding
# Abeta 1-42 globulomer = molecular target: T1, Abeta 1-42 globulomer (Homo sapiens, UniProt P05067); experiment: Globulomer capture assay in CSF (Example 6); settings: for 42:40 (signal:noise ratio): 1 ng/ml average reading, ratio of 42 to 40; for 42, 1 ng/ml average reading: Abeta 1-42 globulomer spiked at 1 ng/mL into CSF; for globulomer capture: Abeta42 globulomer spiked into CSF, reagents on beads
# T1 construct: beta amyloid (1-42) was monomerized with incubation in hexafluoroisopropanol
# Procedure: (§1) A series of new potential aggregate-specific binding reagents were designed as shown below and conjugated onto magnetic Dynal M270 beads as described in Example 2. Typically 7-12 nmol of ligand (each candidate aggregate-specific binding reagent) was coated onto 1 mg of beads.
# (§2) Aliquots of the beads (typically 3 ul) were added to wells of a 96 well plate, followed by sample (with or without Abeta 1-42 globulomer (an Abeta42 oligomer model) spiked in 80:20 CSF:TBSTT, typically 125 ul). The plate was sealed and incubated for 1 hour at 37° C. with shaking. The plate was washed with aqueous solutions of detergent (typically polyethylene glycol sorbitan monolaurate and n-tetradecyl-N,N-dimethyl-3-ammonio-1-propanesulfonate) to remove ubound material and the residual buffer removed. A denaturing solution (typically 0.1-0.15 N NaOH) was added to each well and the plate heated to 80° C. for 30 min with shaking. After cooling the plate to room temperature, a neutralizing buffer (typically 0.12-0.18 M NaH2PO3 in 0.4% TWEEN20,) was added and the plate was shaken briefly at room temperature. The bead eluate was analyzed using either an Aβ42-specific ELISA or the MSD® 96-Well MULTI-SPOT® Human/Rodent [4G8] Abeta Triplex Ultra-Sensitive Assay from Meso Scale Discovery (Gaithersburg, Md.). For the Aβ42-specific assay, the samples were eluted from the beads and a detection antibody (4G8 HRP) was added to a plate bearing the Aβ42-specific antibody 12F4. The plate was incubated for 1 hour, washed, the substrate was added (SuperSignal West Femto Maximum Sensitivity Substrate from Thermo Fisher, Rockville, Md.), and the luminescence was measured. The MSD plate assay was performed in a similar fashion, according to the manufacturer's protocol.
# (§3) In this experiment the preferred number of charges within a given scaffold was identified. An Ala/Lys peptide framework was utilized, where the inclusion of each Lys residue increases the peptides' net charge by +1. Six hexapeptides with increasing charge (+1→+6), AAAKAA, AAKKAA, AAKKKA, AKKKKA, AKKKKK, and KKKKKK, were prepared and conjugated on the beads. The ability of these beads to capture Abeta 1-42 globulomer spiked at 1 ng/mL into CSF was tested, and the result is shown in FIG. 25. The globulomer capture level (“42 1 ng/ml” or the closed bars) was compared to the background signal of Abeta 1-42 detected in the unspiked CSF (“42 0 ng/ml”) and the background signal of Abeta 1-40 detected in unspiked CSF (“40 0 ng/ml”) or CSF spiked with AB42 oligomers “40 1 ng/ml”. The charge density, as conjugated to the magnetic beads, of each reagent evaluated in this experiment is shown below in Table 8.
# Abeta 1-40 monomer = molecular target: T2, Abeta 1-40 monomer (Homo sapiens, UniProt P05067); experiment: Globulomer capture assay in CSF (Example 6): Abeta 1-40 noise; settings: for 40, 1 ng/ml average reading: Abeta 1-40 signal (noise), CSF samples; for background monomeric Abeta capture (noise): CSF
# T2 construct: Abeta 1-40 monomer capture level; from tissue; host or cells: cerebrospinal fluid (matrix of the assay)
# Procedure: as §1, §2, §3
# Abeta 42 globulomer = Abeta 42 globulomer (Homo sapiens, UniProt P05067); experiment: NMPA with detergent washing after PSR1 pulldown: globulomer detection
# normal CSF Aβ42 = molecular target: T3, normal CSF Aβ42 (Homo sapiens, UniProt P05067); experiment: NMPA with detergent washing: background from unspiked CSF, Abeta42; settings: CSF; PSR1 beads treated with detergent post capture
# T3 construct: reduced the detection of normal CSF Aβ42 to the background levels; from tissue; host or cells: pooled normal cerebrospinal fluid
# Procedure: Second, two neutral detergents, polyethylene glycol sorbitan monolaurate (available as TWEEN 20 from Sigma-Aldrich, St. Louis, Mo.) and n-tetradecyl-N,N-dimethyl-3-ammonio-1-propanesulfonate (available as ZWITTERGENT 3-14 from EMI) Chemicals, Gibbstown, N.J.) were used to treat the globulomer-spiked CSF samples that had been contacted with PSR1 beads. For each assay, a mixture of 30 μl of PSR1 beads (coated at about 7-12 nmol PSR1 ligand/mg DYNAL beads, which were used in this example and in the following examples unless otherwise stated) and 70 μl of 1×TBSTT was immediately pipetted into each well on the pulldown plate. The liquid was removed on a magnetic separator. Fifty micro liters of 5×TBSTT was added to each well. The beads were suspended by briefly shaking at 750 rpm. Next […] of TBSTT or CSF sample without globulomer was added to each well. The pulldown plate was sealed and incubated at 37° C. for 1 hour with shaking at 500 rpm. After incubation, the beads were washed 8 times with TBST on the plate washer. After the plate wash, residual TBST buffer was removed from the beads on the magnetic separator. The beads were then incubated with 100 μl of either TBS, 1% Tween20 or 1% Zwittergent 3-14 for 30 minutes at room temperature at 750 rpm, (followed by an additional 8 washes with TBST on the plate washer. After removing residual TBST on the magnetic separator, 20 μl of denaturing solution, typically 0.1-0.15 N NaOH, was added to the beads. The plate was covered with an aluminum foil plate sealer and incubated at 80° C. for 30 minutes with shaking at 750 rpm. After incubation, the plate was cooled to room temperature and twenty micro liters of neutralizing solution, typically 0.12-0.18 M NaH2PO4+0.4% Tween20) was added into each well and the plate was incubated at room temperature for 5 minutes with shaking at 750 rpm. […] MSD Abeta Triplex Assay was preformed according to the manufacturer's instructions.
# A summary of the assay results and calculated signal/noise is shown below in Table 17.
# [1] = 0.5 ng/mL vs 0 ng/mL globulomer
# [2] = Abeta 42 RLU at 0.5 ng/mL over average Abeta 40 RLU
# [3] = CSF, PSR1 beads treated with detergent post capture
Molecule,42:40 (signal:noise ratio) (Abeta 1-42 globulomer),"42, 1 ng/ml average reading (Abeta 1-42 globulomer)",globulomer capture (Abeta 1-42 globulomer),"40, 1 ng/ml average reading (Abeta 1-40 monomer)",further results
KKKFKF-link: KKKFKF peptide reagent with linker to bead at the right end (FIG. 27) (not fully specified (C-terminus); also: attached to bead through link at right end),3.9,748 RLUs,able to capture globulomers,191.5 RLUs,
FKFKKK-link: FKFKKK peptide reagent with linker to bead at the right end; charge closest to the beads (FIG. 27) (not fully specified (C-terminus); printed as FKFKKK-link; also: attached to bead through link at right end),5.7,1995 RLUs,significantly better than the remainder of the beads,348 RLUs,
FKFNLFSG,2.4,3230.5 RLUs,efficient at capturing globulomer,1327.5 RLUs,background monomeric Abeta capture (noise) (Abeta 1-40 monomer): captured significant amounts of background monomeric species
DFKLNFKF,2,515.5 RLUs,,259.5 RLUs,
FoFooo,,,captured globulomers specifically,,
AAAKAA,0.8,113.5 RLUs,,134.5 RLUs,
"CCCCCCCCCCCCCCCC(=O)NCCC[N+](C)(C)CCCS(=O)(=O)[O-] [ASB-16, Amidosulfobetain-16,3-[N,N-Dimethyl-N-(3-palmitamidopropyl)ammonio]propane-1-sulfonate]",,,,,"Abeta 42 RLU, 0.5 ng/mL Abeta 42 globulomer, Average (Abeta 42 globulomer): 788.7 RLU; S/N Abeta 42 globulomer-spiked/Abeta 40 (Abeta 42 globulomer): 2.8; S/N Abeta 42 globulomer-spiked/unspiked (Abeta 42 globulomer): 8.2; Abeta 42 RLU, 0 ng/mL Abeta 42 globulomer, Average (normal CSF Aβ42): 95.7 RLU"
KFKKKF,,,captured globulomers specifically,,
"CCCCCCCCCCCCCC(=O)NCCC[N+](C)(C)CCCS(=O)(=O)[O-] [ASB-14, Amidosulfobetaine-14,3-[N,N-Dimethyl(3-myristoylaminopropyl)ammonio]propanesulfonate]",,,,,"Abeta 42 RLU, 0.5 ng/mL Abeta 42 globulomer, Average (Abeta 42 globulomer): 779.3 RLU; S/N Abeta 42 globulomer-spiked/Abeta 40 (Abeta 42 globulomer): 2.0; S/N Abeta 42 globulomer-spiked/unspiked (Abeta 42 globulomer): 8.7; Abeta 42 RLU, 0 ng/mL Abeta 42 globulomer, Average (normal CSF Aβ42): 89.7 RLU"
"CCCCCCCCc1ccc(C(=O)NCCC[N+](C)(C)CCCS(=O)(=O)[O-])cc1 [ASB-C8phn, 4-n-Octylbenzoylamido-propyl-dimethylammonio Sulfobetaine]",,,,,"Abeta 42 RLU, 0.5 ng/mL Abeta 42 globulomer, Average (Abeta 42 globulomer): 936.3 RLU; S/N Abeta 42 globulomer-spiked/Abeta 40 (Abeta 42 globulomer): 1.4; S/N Abeta 42 globulomer-spiked/unspiked (Abeta 42 globulomer): 9.3; Abeta 42 RLU, 0 ng/mL Abeta 42 globulomer, Average (normal CSF Aβ42): 100.7 RLU"
KIGVVR,,,captured Abeta 1-42 globulomer at a high level that's similar to PSR1's globulomer capture level,,background monomeric Abeta capture (noise) (Abeta 1-40 monomer): low levels of monomeric Abeta 1-40 noise similar to PSR1's
FKFSLFSG,1.5,3078.5 RLUs,efficient at capturing globulomer,2011 RLUs,background monomeric Abeta capture (noise) (Abeta 1-40 monomer): captured significant amounts of background monomeric species
IRYVTHQYILWP,3.2,3242 RLUs,efficient at capturing globulomer,1011.5 RLUs,background monomeric Abeta capture (noise) (Abeta 1-40 monomer): captured significant amounts of background monomeric species
link-FKFKKK: FKFKKK peptide reagent with linker to bead at the left end (FIG. 27) (not fully specified (N-terminus); also: attached to bead through link at left end),4.1,808 RLUs,able to capture globulomers,198 RLUs,
"n-Dodecyl-N,N-dimethyl-3-ammonio-1-propanesulfonate [ZW3-12]",,,,,"S/N Abeta 42 globulomer-spiked/unspiked (Abeta 42 globulomer; [1]): 7.1; S/N Abeta 42 globulomer-spiked/Abeta 40 (Abeta 42 globulomer; [2]): 1.4; Abeta 42 RLU, 0.5 ng/mL Abeta 42 globulomer, Average (Abeta 42 globulomer; [3]): 642.0 RLU; Abeta 42 RLU, 0 ng/mL Abeta 42 globulomer, Average (normal CSF Aβ42): 90.7 RLU"
AKKKKA,2.1,322.5 RLUs,significantly lower globulomer capture efficiency,155.5 RLUs,
Ac-KKKFKF: acetylated KKKFKF peptide conjugated to beads with the Ahx-Ahx-Cys-NH2 linker (Ac-KKKFKF[Ahx][Ahx]C-NH2; also: conjugated to beads via the linker),,,captured globulomer specifically,,
ANFFAHSS,1.8,994.5 RLUs,,543 RLUs,
"CCCCCCCCCCCC[N+](C)(C)CC(=O)[O-] [Empigen, N,N-Dimethyl-N-dodecylglycine betaine]",,,,,"S/N Abeta 42 globulomer-spiked/unspiked (Abeta 42 globulomer; [1]): 8.7; S/N Abeta 42 globulomer-spiked/Abeta 40 (Abeta 42 globulomer; [2]): 2.6; Abeta 42 RLU, 0.5 ng/mL Abeta 42 globulomer, Average (Abeta 42 globulomer; [3]): 670.3 RLU; Abeta 42 RLU, 0 ng/mL Abeta 42 globulomer, Average (normal CSF Aβ42): 76.7 RLU"
AKKKKK,2.5,442 RLUs,,176 RLUs,
F-fdb-F-fdb-fdb-fdb,,,more effective than the δ peptide,,
AAKKKA,1.6,247 RLUs,,159 RLUs,
AAKKAA,1.1,159.5 RLUs,,147 RLUs,
KKFKKF,,,captured globulomers specifically,,
CCCCCCCC[N+](C)(C)CCCS(=O)(=O)[O-] [ZW3-08],,,,,"Abeta 42 RLU, 0.5 ng/mL Abeta 42 globulomer, Average (Abeta 42 globulomer): 668.7 RLU; S/N Abeta 42 globulomer-spiked/Abeta 40 (Abeta 42 globulomer): 0.9; S/N Abeta 42 globulomer-spiked/unspiked (Abeta 42 globulomer): 6.8; Abeta 42 RLU, 0 ng/mL Abeta 42 globulomer, Average (normal CSF Aβ42): 97.7 RLU"
